Experiments:
c-Src SH2 = test: SH2 binding enrichment of the phosphorylated peptide, bacterial display (enrichment ratio); higher = better substrate or ligand; peptides without Tyr show the background
Grb2 SH2 = Grb2 SH2 (UniProt P62993); test: as above
SHP2-C SH2 = test: as above
EPHB1 = EPHB1 (UniProt P54762); test: phosphorylation enrichment, bacterial display (enrichment ratio); higher = better substrate or ligand; peptides without Tyr show the background
Fyn = Fyn (UniProt P06241); test: as above
Fyn, sequence (P06241 whole entry, looked up): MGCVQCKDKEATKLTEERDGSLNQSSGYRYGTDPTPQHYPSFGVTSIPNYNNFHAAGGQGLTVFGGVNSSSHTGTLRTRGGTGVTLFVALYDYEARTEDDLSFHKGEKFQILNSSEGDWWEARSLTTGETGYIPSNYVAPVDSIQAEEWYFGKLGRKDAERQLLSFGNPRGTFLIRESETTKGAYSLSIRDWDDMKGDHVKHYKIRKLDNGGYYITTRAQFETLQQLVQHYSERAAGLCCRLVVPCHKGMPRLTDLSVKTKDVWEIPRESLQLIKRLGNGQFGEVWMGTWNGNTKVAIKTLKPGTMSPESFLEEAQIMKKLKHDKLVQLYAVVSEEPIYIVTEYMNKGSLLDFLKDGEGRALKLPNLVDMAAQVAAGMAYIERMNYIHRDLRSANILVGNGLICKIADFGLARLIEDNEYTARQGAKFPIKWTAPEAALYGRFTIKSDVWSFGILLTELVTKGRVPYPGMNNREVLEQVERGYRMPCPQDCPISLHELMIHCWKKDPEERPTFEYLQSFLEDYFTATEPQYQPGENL

FGFR1 = FGFR1 (UniProt P11362); test: as above
FGFR1, sequence (P11362 whole entry, looked up): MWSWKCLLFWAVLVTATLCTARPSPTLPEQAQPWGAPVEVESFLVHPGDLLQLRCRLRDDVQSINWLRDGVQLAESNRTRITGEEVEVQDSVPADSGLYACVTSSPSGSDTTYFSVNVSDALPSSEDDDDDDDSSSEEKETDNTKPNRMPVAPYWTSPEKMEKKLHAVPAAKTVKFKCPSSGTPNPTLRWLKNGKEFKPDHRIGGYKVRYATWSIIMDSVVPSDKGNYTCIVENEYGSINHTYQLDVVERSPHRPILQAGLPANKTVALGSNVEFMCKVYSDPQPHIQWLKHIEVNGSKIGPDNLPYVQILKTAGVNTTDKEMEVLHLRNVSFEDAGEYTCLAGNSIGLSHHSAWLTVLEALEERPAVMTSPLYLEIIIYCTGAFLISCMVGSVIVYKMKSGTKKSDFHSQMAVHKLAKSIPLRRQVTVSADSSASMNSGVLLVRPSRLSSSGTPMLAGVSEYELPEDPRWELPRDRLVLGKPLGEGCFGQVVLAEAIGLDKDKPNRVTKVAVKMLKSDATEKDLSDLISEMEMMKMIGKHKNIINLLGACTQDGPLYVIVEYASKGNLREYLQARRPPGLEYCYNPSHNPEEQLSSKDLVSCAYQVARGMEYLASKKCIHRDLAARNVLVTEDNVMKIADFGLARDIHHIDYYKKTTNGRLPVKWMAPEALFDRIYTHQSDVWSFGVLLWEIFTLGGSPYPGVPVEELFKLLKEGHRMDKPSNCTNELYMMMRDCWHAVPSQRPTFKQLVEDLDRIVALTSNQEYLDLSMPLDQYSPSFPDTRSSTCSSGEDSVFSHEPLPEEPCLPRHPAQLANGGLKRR

AncSZ = test: as above
c-Src = test: as above
Jak2 = Jak2 (UniProt O60674); test: as above
Jak2, sequence (O60674 whole entry, looked up): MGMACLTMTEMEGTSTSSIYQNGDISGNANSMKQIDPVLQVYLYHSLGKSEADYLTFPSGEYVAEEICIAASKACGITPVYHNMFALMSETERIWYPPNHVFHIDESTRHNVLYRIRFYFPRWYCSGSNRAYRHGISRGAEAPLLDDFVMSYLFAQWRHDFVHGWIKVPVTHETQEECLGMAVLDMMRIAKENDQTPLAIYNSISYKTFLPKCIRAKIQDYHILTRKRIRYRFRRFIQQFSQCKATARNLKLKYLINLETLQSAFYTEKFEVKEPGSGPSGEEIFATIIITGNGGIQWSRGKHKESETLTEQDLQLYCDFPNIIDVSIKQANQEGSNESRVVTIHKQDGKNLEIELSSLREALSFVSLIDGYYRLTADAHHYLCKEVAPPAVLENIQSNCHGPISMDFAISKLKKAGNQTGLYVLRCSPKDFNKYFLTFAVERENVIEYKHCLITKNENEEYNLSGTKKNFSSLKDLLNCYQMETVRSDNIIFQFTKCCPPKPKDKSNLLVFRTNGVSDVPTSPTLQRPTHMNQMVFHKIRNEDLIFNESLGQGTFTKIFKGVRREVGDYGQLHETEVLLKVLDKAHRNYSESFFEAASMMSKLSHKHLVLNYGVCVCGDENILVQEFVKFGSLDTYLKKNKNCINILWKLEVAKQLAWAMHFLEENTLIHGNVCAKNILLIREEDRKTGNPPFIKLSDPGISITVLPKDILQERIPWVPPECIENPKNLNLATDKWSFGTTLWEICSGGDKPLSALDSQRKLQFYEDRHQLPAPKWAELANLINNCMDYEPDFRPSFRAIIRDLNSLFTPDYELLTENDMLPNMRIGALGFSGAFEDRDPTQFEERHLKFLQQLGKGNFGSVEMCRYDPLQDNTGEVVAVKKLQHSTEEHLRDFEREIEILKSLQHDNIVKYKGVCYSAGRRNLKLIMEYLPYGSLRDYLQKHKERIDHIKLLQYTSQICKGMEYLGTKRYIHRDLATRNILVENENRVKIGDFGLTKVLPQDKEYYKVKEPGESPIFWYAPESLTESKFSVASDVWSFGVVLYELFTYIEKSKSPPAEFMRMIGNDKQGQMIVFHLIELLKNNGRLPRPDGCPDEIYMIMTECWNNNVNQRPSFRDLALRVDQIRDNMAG

Hck = Hck (UniProt P08631); test: as above
EPHB2 = EPHB2 (UniProt P29323); test: as above
EPHB2, sequence (P29323 whole entry, looked up): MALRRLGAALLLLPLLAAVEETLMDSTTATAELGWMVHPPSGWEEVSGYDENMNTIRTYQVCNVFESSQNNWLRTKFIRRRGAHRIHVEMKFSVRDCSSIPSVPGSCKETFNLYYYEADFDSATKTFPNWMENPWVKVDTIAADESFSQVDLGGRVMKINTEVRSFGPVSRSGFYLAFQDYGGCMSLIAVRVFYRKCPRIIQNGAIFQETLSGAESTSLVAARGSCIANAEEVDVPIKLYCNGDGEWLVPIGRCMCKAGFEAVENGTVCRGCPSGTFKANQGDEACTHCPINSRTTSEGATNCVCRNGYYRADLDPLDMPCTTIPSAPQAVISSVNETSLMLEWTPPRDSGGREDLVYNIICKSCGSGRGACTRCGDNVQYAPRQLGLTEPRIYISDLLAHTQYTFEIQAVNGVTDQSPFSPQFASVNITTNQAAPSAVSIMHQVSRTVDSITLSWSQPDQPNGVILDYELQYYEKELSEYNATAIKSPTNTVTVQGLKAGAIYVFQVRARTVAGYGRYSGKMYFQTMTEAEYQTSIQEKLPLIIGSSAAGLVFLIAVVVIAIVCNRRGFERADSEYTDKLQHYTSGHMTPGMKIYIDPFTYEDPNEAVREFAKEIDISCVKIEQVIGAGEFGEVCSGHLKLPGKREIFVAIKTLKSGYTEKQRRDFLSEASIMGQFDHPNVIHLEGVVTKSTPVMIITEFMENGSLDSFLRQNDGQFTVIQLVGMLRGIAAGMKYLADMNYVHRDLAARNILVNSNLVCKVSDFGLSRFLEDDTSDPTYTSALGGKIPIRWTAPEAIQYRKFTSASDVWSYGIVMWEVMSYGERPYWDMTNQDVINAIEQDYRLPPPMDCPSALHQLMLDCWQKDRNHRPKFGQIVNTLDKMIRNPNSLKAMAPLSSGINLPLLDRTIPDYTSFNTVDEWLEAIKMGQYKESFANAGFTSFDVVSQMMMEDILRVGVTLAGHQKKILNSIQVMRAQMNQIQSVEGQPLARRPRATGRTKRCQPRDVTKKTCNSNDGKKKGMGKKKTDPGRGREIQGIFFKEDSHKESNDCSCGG

Fes = Fes (UniProt P07332); test: as above
MERTK = MERTK (UniProt Q12866); test: as above
FGFR3 = FGFR3 (UniProt P22607); test: as above
FGFR3, sequence (P22607 whole entry, looked up): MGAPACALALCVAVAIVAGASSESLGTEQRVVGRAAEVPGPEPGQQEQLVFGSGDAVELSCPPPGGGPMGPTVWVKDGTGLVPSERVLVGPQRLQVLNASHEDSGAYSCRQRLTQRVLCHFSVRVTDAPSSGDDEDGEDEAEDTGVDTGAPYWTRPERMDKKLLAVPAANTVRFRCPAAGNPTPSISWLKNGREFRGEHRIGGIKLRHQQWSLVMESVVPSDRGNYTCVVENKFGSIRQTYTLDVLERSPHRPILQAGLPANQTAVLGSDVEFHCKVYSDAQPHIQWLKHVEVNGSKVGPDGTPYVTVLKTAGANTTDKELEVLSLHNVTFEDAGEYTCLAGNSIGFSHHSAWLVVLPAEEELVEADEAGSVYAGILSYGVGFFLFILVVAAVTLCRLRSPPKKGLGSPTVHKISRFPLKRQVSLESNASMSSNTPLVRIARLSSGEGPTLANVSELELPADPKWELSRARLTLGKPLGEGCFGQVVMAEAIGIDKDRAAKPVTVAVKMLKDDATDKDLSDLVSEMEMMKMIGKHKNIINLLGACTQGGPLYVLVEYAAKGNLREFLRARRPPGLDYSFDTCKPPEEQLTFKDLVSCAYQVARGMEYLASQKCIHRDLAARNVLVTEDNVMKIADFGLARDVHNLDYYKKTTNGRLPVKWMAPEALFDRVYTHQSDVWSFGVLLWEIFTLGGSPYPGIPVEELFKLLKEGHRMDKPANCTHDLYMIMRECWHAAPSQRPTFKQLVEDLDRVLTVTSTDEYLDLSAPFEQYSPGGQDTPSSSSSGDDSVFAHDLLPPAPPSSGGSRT

Fer (mouse) = test: as above
c-Abl (mouse) = test: as above
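For SH2 binding enrichment of the phosphorylated peptide, bacterial display in this document: peptide library displayed on the E. coli surface as eCPX fusions, selected cells deep-sequenced, score is each peptide's frequency after selection divided by its frequency in the input.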
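For phosphorylation enrichment, bacterial display in this document: 11-residue human phosphosite peptides and single-mutation variants displayed on the E. coli surface, counted by deep sequencing, each peptide's frequency after selection divided by its frequency in the unselected input library; frequency after pTyr selection over input frequency; kinase dosed for 20-30% of maximal phosphorylation in three min.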

Grb2 SH2, sequence (P62993 whole entry, looked up): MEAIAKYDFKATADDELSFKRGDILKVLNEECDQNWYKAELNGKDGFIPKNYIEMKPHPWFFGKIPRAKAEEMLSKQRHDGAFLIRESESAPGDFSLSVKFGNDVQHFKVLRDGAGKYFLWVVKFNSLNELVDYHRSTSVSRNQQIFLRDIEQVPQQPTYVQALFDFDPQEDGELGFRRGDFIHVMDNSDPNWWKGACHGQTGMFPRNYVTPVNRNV

Sequence | SH2 binding enrichment (c-Src SH2) | SH2 binding enrichment (Grb2 SH2) | SH2 binding enrichment (SHP2-C SH2) | phosphorylation enrichment (EPHB1) | phosphorylation enrichment (Fyn) | phosphorylation enrichment (FGFR1) | phosphorylation enrichment (AncSZ) | phosphorylation enrichment (c-Src) | phosphorylation enrichment (Jak2) | phosphorylation enrichment (Hck) | phosphorylation enrichment (EPHB2) | phosphorylation enrichment (Fes) | phosphorylation enrichment (MERTK) | phosphorylation enrichment (FGFR3) | phosphorylation enrichment (Fer (mouse)) | phosphorylation enrichment (c-Abl (mouse))
LFSNAYLNDLA [ALDH1A1_Y119_YF] | 1.29 | 4.23 | 0.627 | 0.794 | 1.12 | 0.986 | 1.14 | 1.15 | 1.11 | 1 | 0.723 | 1.58 | 0.807 | 1.25 | 0.688 | 1.14
SFPSTYRYERG [INPPL1_Y661_P659S] | 0.633 | 0.987 | 0.728 | 0.453 | 0.439 | 0.39 | 0.484 | 0.463 | 0.767 | 0.392 | 0.397 | 0.813 | 0.455 | 0.449 | 0.418 | 0.52
PNAFIYVVQLP [L1CAM_Y420_A415P_YF] | 0.656 | 0.931 | 0.768 | 1.2 | 0.896 | 0.797 | 1.39 | 0.87 | 1.26 | 1.06 | 1.53 | 1.56 | 1.69 | 1.31 | 0.737 | 0.747
CVAARYMDMKG [WFIKKN2_Y93_V96M] | 1.39 | 0.95 | 0.765 | 0.394 | 0.439 | 0.36 | 0.755 | 0.39 | 0.654 | 0.471 | 0.428 | 0.984 | 0.446 | 0.637 | 0.431 | 0.542
DHFNQYEQQKM [CHD7_Y75_YF] | 0.501 | 0.752 | 0.682 | 0.457 | 0.382 | 0.468 | 0.834 | 0.414 | 0.535 | 0.47 | 0.462 | 0.744 | 0.425 | 0.582 | 0.415 | 0.599
PQIVKYRPDCI [LDHB_Y128_S129R] | 0.671 | 1.26 | 0.817 | 0.627 | 0.699 | 0.302 | 0.89 | 0.663 | 0.391 | 0.238 | 0.131 | 0.839 | 0.133 | 0.537 | 0.12 | 0.069
NHQFDYTFDWT [CSNK1A1_Y294_YF] | 0.606 | 1.02 | 0.829 | 0.696 | 0.584 | 3.58 | 1.23 | 1.22 | 1.08 | 0.543 | 0.721 | 1.12 | 0.565 | 2.22 | 0.459 | 0.995
MDYRSYPHEYG [RBM10_Y44_R46H] | 0.494 | 0.647 | 0.724 | 0.542 | 0.419 | 0.602 | 0.832 | 0.518 | 0.682 | 0.484 | 0.551 | 0.854 | 0.486 | 0.632 | 0.404 | 0.561
SLFNGYVFSGM [NEIL3_Y71_V76M_YF] | 1.45 | 0.938 | 1.1 | 0.532 | 0.421 | 0.487 | 0.954 | 0.482 | 1.08 | 0.531 | 0.541 | 1.07 | 0.435 | 0.629 | 0.504 | 0.697
DENWFYMRAAS [RPS19_Y54_T55M] | 0.481 | 0.774 | 0.627 | 0.718 | 0.43 | 0.654 | 1.35 | 0.384 | 1.25 | 0.485 | 0.654 | 1.52 | 0.379 | 0.933 | 0.594 | 0.869
CLAKMYYSAVE [CP_Y539_D544E] | 2.57 | 0.828 | 0.971 | 0.863 | 0.563 | 0.861 | 1.04 | 0.725 | 0.831 | 0.606 | 0.901 | 1.19 | 2.82 | 0.885 | 1.35 | 0.651
KTNVSYCGALD [CACNB4_Y103] | 0.551 | 0.9 | 0.726 | 0.564 | 0.381 | 0.494 | 0.778 | 0.469 | 0.754 | 0.503 | 0.508 | 0.834 | 0.389 | 0.643 | 0.46 | 0.745
AWVARYIFKRL [LPCAT3_Y348] | 1 | 1.05 | 1.1 | 0.555 | 0.502 | 0.351 | 1.26 | 0.346 | 1 | 0.48 | 0.472 | 1.25 | 0.424 | 0.604 | 0.482 | 0.748
HVEAVYIDIAD [PITPNA_Y140] | 0.541 | 0.931 | 0.647 | 2.52 | 1.14 | 5.13 | 1.39 | 1.87 | 0.922 | 0.837 | 1.27 | 1.18 | 0.708 | 2.96 | 2.23 | 0.831
SEQNNYSRVAN [CWC22_Y797_R794Q] | 1.66 | 0.784 | 3.97 | 1.14 | 0.458 | 0.43 | 0.705 | 0.35 | 0.535 | 0.458 | 0.878 | 0.534 | 0.4 | 0.437 | 0.497 | 0.447
VTVLDYEKIGK [SYT1_Y365_D366E] | 0.89 | 0.662 | 0.649 | 1.07 | 0.479 | 0.456 | 0.783 | 0.355 | 0.77 | 0.573 | 0.524 | 0.868 | 0.393 | 0.561 | 0.412 | 0.54
PLDGEYFTHQI [TP53_Y327_L330H] | 0.429 | 1.12 | 0.717 | 0.932 | 1.99 | 2.17 | 4.62 | 1.61 | 0.99 | 1.65 | 1.15 | 1.43 | 0.656 | 1.55 | 1.08 | 1.5

Sequence | SH2 binding enrichment (c-Src SH2) | SH2 binding enrichment (Grb2 SH2) | SH2 binding enrichment (SHP2-C SH2) | phosphorylation enrichment (EPHB1) | phosphorylation enrichment (Fyn) | phosphorylation enrichment (FGFR1) | phosphorylation enrichment (AncSZ) | phosphorylation enrichment (c-Src) | phosphorylation enrichment (Jak2) | phosphorylation enrichment (Hck) | phosphorylation enrichment (EPHB2) | phosphorylation enrichment (Fes) | phosphorylation enrichment (MERTK) | phosphorylation enrichment (FGFR3) | phosphorylation enrichment (Fer (mouse)) | phosphorylation enrichment (c-Abl (mouse))
NLSVRYDSSLK [ABCC8_Y1353] | 0.587 | 0.887 | 0.863 | 0.515 | 0.353 | 0.446 | 0.68 | 0.492 | 0.847 | 0.473 | 0.457 | 0.98 | 0.381 | 0.633 | 0.422 | 0.55
NDLMEYPKQHG [ASS1_Y163_A164P] | 0.538 | 0.887 | 0.571 | 0.46 | 0.503 | 0.506 | 0.738 | 0.447 | 0.765 | 0.502 | 0.48 | 0.855 | 0.45 | 0.48 | 0.377 | 0.697
LAGRFYALRSM [CKB_Y174_K177R_YF] | 1.2 | 1.38 | 0.874 | 0.583 | 0.737 | 0.598 | 1.29 | 0.571 | 0.59 | 0.821 | 0.944 | 1.92 | 0.509 | 1.84 | 0.843 | 0.642
EVASVYQSYQP [MAVS_Y92] | 0.609 | 0.753 | 0.8 | 0.54 | 9.7 | 0.518 | 0.864 | 7.09 | 0.661 | 7.42 | 0.622 | 0.802 | 0.569 | 0.568 | 2.7 | 1.14
GKAFIYASHIV [ZNF573_Y229] | 0.65 | 0.76 | 0.697 | 0.557 | 0.666 | 0.427 | 0.802 | 1.21 | 0.869 | 0.604 | 0.42 | 1 | 0.408 | 0.602 | 1.16 | 0.996
NPQKSYFIHLY [WAS_Y83_R86H] | 0.804 | 1.29 | 1.02 | 0.588 | 0.589 | 0.46 | 1.12 | 0.407 | 1.18 | 0.559 | 0.586 | 1.23 | 0.424 | 0.782 | 0.517 | 0.864
LLQKTYNYNVL [SLC4A1_Y553_P548L] | 2.2 | 1.26 | 0.866 | 0.745 | 1.07 | 1.23 | 1.26 | 0.851 | 0.834 | 1.01 | 1.7 | 1.52 | 0.694 | 1.06 | 0.496 | 0.716
SVKVYYKKCWS [EPHA7_Y202] | 0.393 | 0.716 | 0.521 | 0.549 | 0.352 | 0.414 | 0.951 | 0.432 | 1.21 | 0.424 | 0.432 | 1.25 | 0.379 | 0.733 | 0.483 | 1.2
VVAHHYSFAPD [TNS3_Y601_Q600H] | 2.22 | 0.781 | 1.43 | 0.426 | 0.532 | 0.683 | 0.646 | 0.643 | 0.707 | 0.453 | 0.502 | 0.882 | 0.593 | 0.674 | 0.499 | 0.583
VLALWYFFLTN [ZDHHC23_Y127_H132N_YF] | 0.985 | 0.936 | 1.03 | 0.746 | 0.535 | 2.05 | 1.16 | 0.654 | 1.91 | 0.62 | 0.63 | 1.68 | 0.963 | 1.94 | 0.595 | 0.904
RLLRGYDQSAF [HLA-C_Y137_YF] | 0.758 | 1.26 | 0.953 | 0.422 | 0.416 | 0.412 | 0.669 | 0.459 | 0.628 | 0.439 | 0.526 | 0.592 | 0.443 | 0.712 | 0.502 | 0.708
ADARMCGVLPW [PLP1_Y207_Y207C] | 0.477 | 0.751 | 0.527 | 0.606 | 0.436 | 0.489 | 0.93 | 0.487 | 1.1 | 0.488 | 0.524 | 1 | 0.436 | 0.671 | 0.44 | 0.746
PEVRRHVLPLN [RPE65_Y368_Y368H] | 0.663 | 0.834 | 0.391 | 0.849 | 0.587 | 0.707 | 1.35 | 0.661 | 1.57 | 0.894 | 0.886 | 1.61 | 0.669 | 1.03 | 0.843 | 1.73
ALWYIYLHTRS [ENG_Y614_S615L] | 0.521 | 0.641 | 0.607 | 0.542 | 0.432 | 0.62 | 1.1 | 0.331 | 1.09 | 0.384 | 0.476 | 1.39 | 0.352 | 0.821 | 0.514 | 0.733
PEADKYRLPFA [FGG_Y300_T303P_YF] | 0.423 | 0.821 | 0.517 | 0.61 | 0.614 | 0.544 | 0.988 | 0.614 | 0.731 | 0.648 | 0.645 | 0.717 | 0.442 | 0.657 | 0.512 | 0.634
LGGSPYPSVPV [FGFR1_Y701_G703S] | 0.476 | 0.915 | 0.608 | 0.85 | 0.564 | 0.784 | 1.04 | 0.453 | 0.645 | 0.817 | 0.735 | 1.25 | 0.614 | 0.646 | 0.675 | 0.747

From the supplement of paper PMC10065799, “High-throughput profiling of sequence recognition by tyrosine kinases and SH2 domains using bacterial peptide display” (eLife, 2023)
